From the domain aggregation screens of Martell et al. (2025)

Test: soluble fraction after stress (log2 fold change); higher = more stays soluble; pooled small domains, quantitative proteomics
Conditions: stress: 75 degC
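Note: 20 min heating vs room temperature control held 20 min.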

Sequence	soluble fraction (log2)
HMIHEQSLHKIRNFIGSLPESLRTAFTLREQDGLSYEEIGKITNTPIGTVRSRIYRARESILDHINQE	-1.23
HMIDFIGLEAKLLSTISGEKMGNAEVIVDGNVMNIYVKSLDTSEIKFRENVLIIKQSDDKNYYLVAKP	-3.26
HMQDAVASEKIQLMSEALHARDTGDLLLAKEKVEKLIALAPNDKNIQALLLTINQSIEDKGL	-0.112
HMQSANQLIKLSRKRKGLTQQELADQAGVSLRTVQRIEKGTEEISGFSLKQISQILEIPLEQLIM	-0.652
HMGTVIGMGRITAGGVNFRETEGGGVIEKLERDTLVEVLTVPSVIDTTHWYQVRYNNRTGYVQAPFVQLLG	-1.7
HMEQLESAVASRTLIGQAQGVIMERYGLSAPNAFSVLSRISQDSNTKLAEVAQQIVATRRIPG	-0.093
HMDIEFSDELRTFIDEWSKKEGGLVMMLHRIQNEYGFIPRTAAEKLSLISGIPLARIYGVITFYHFFKT	-0.499
HMKEPPTLEEIKNYFASKLSTELESEKFFNYFESNGWLVGGKTPMKNWQSAANNWLINMSKFN	-0.853
HMYMFSGQRLKSLRKEKKMSQEKLGSLLNISKVAVSNWENAKSFPTMDNLNELAKVLEVEPHYF	-1.33
HMVSMSFDDYVNDAKEYESEGDKDKAYNSYLEAYKLNKSSEEVLDYLIDNTEDVTLKLNYVYEYLDL	0.00966
HMGFLTGNTQGEVNRKTKNQMVNIFLPTTPNPTSGFLLFVPKKDILRLTMTVEEGIKMIISAGMLTPS	-0.527
HMQQVIEGLDSDRDFITVPEAIALFAVGRQTLYHYIRSGKIPSVNLGQRLTRLSKKQLGELFPLR	-1.97
HMGIAWGMLREQVAASDVSYRSEVLDILDRTPVWIYDAEGKIVDGRKKRLMDLQGGEPYRHMLEHFFPDLR	-2.43
HMKPDAAKREQLIDIALRLFSQQGIARTSLNAIAREAGVTPAMLHYYFNSREQLLDVMIEERFL	-3
HMQMSDTAAIGKIVDEVFAENPAALEDYAKGKTNVVDWLTGQVMKKSRGQANPGIASELVQKRLADF	0.0922
HMGQGEISVPRLEGLSLRETSELLGLFGLRLEAAGSGIALSQNPPAGARVKAGDVIQVDFGEPGN	0.0756
HMTMNLIEIGHVVGARRAELGLTQAQLAHLSGLSRQTVVGLEKGTLSDLGVNRVGQVMAVLGLDS	-0.555
HMGDHYTALGLSIDATPEEIRSAYFLAARRSHPDANPDAQTTEWFLRVQEAYDILSNPRRRAEYDASLP	-0.6
HMQFAEIPNFSEMALQILRLQADGLSITKIAEALHMNPRTVKYHAQENYRKLQASNKSEALLAARNLNL	-1.85

Sequence	soluble fraction (log2)
HMHLLPAREQVAAYLRKAILRQEIREGTILNLADTARQMGVSVTPVREALQLLAAQGLVRLRPNKGAVVMG	-1.68
HMADIGRMKELIDILNRASAVYYQGKDEIMSNFEYDKLYDELVSLEKESGLVLAGSPTQKVGY	-0.179
HMVVYQRVHDEILQALKDNVYPVGTLLPPEPELERIYSVSRTTVRRAIAKLSEEGYVQVRQGYGTMVLKN	-3.48
HMGTLRPKGTVVFANLPIAADAKEGDMYNISDQFTTTASFKEGAGNVIPAGSNVYRTDDGFWDVL	0.783
HMKKSTLLLFFLKELLEGKKISLKSFALENDINIRTAQRYIEDIEEAFPDNLLKENDFYSFV	-2.89
HMGNNKLVLSLAVALKNTPNFLKNYNYKISKDKKFIEILLSKQINEVSDIIINLKKNNINIVDLNIKKR	-1.85
HMEQQEFIVPHDSEGQRLDLFLVSVLGTHSRSQIRKLIVNGHVKLENRAPRPNLPVRAGESVVVSMPEPT	-0.849
HMAADDGSARAEQLREMYSLISGLDKLDKAIILMWLDERSYDEIAEVTGFTRNNVATRLHRIKSRLARQSN	-1.66
HMGIKDRIVYIMEKEKLSIPLFAKKIGIGPSTLLHIIRGKNAPSLQVVQAIHKAYPDIDLNWLI	-1.66
HMLEIQENFQNILKRMELSLSPLERRVLALYLSGYERSEIPEKTGIPLKTFDNALHRVRNKMK	-2.36
HMEFEYTVVVPETRGKTIGEAGRILLDLELKYTSESMNIREDSKVIDQFPSPGTEVSKGSIIDLYLDE	-0.137
HMDLRIIKTKKAIKTAFLNLLKENKYHNITISAISETALINRKTFYAHYETKDELYADVIEDALRVLSP	0.114
HMTIDETKKQQVKDGLKDIPGVTVEFVGDKAVLKGAVTDANRVKIMQIVMAAKVLSDASGLTSK	-0.422
HMASRTLSYSEFMSRVDSGDVTSVTLDGERIIMRTSNNQEFLSIKPEGEDISERLLAKNIEVRAEAQQ	-0.321
HMGPGFVGGSVLSGGNRGEGDPVANAQVFITDMDDNVVAFTKTDAEGNFDMTNLAYGDYKMYVDILNK	0.126
HMSTMNRLPRHEQILKLVRANGFMPIEELARLLDVTPQTIRRDINTLSEENLLRRFHGGAALGPSVE	-0.371
HMEWNPEKQHLLENYITNYSRQLNDTGLFYKNLDWNYIFNLVGVDDQEFLMLKIDEIYDESINVY	-1.74
HMSAHDLQVVLRWIGTDEPMTDQRYRITTEDGRTFEGRTDDAGLTERVASTIPFGRYSIEALD	-0.278
HMNQDIIEIGNNIQKIRKKNGISQSVLAEKIDVAGNSIYRMEGATTVMGVDKLINIADALNTSPMDILPAR	0.0791
